In series [1] the target is Eaf3 CD Y23A (Saccharomyces cerevisiae, UniProt Q12432, Y23A). It is filed as binding. The note with it: pH 6.8.
Series [2] deals with Eaf3 CD Y81A (Saccharomyces cerevisiae, UniProt Q12432, Y81A). It is filed as binding. To be noted: pH 6.8.
Series [3] deals with Eaf3 CD W84A (Saccharomyces cerevisiae, UniProt Q12432, W84A). It is filed as binding. To be noted: pH 6.8.
The target of series [4] is Eaf3 CD W88A (Saccharomyces cerevisiae, UniProt Q12432, W88A). It is filed as binding. To be noted: pH 6.8.
Chain of Eaf3 CD W88A (Q12432 1-120 W88A limits assumed): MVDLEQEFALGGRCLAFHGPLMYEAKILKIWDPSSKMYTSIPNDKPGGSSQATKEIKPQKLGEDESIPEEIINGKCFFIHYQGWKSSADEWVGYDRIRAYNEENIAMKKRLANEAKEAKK
The target in series [5] is Eaf3 CD (wild-type) (Saccharomyces cerevisiae, UniProt Q12432). As to the kind of experiment: biochemical. It is filed as binding.
Series [6] addresses Histone H3 peptide trimethylated at Lys36 (H3K36me3) none (post-translational modification: K36me3) (UniProt P61830). The series is described as follows: NMR titration (1H,15N-HSQC chemical shift perturbation), Bruker AVANCE-600. To be noted: 25°C, 20 mM NaCl (given for pH 6.8 and in the pH 8.5 Tris buffer; the wording leaves open whether NaCl was also present at pH 5.2, 6.0 and 7.5), pH 5.2: 10 mM sodium acetate, pH 6.0 and 7.5: 10 mM potassium phosphate, pH 6.8: 10 mM potassium phosphate, pH 8.5: 10 m.

Series [7] has the same target. The series is described as follows: NMR pH titration of the free protein (series of 1H,15N-HSQC spectra; His side-chain Hδ2, Hε1, Nδ1, Nε2 and main-chain N shifts). To be noted: pH 5.2-10.5; 25°C.
For series [8], the target named is T1, Eaf3 chromodomain (Eaf3 CD, residues 1-120), wild type (S. cerevisiae, UniProt Q12432 1-120).
T1 construct: Eaf3 chromodomain (CD), budding yeast (S. cerevisiae), residues 1-120; 15N-labelled for the NMR experiments; expressed from pET15b; also called WT Eaf3 CD; source: E. coli BL21(DE3)pLysS, purified (Ni-NTA, thrombin, Ni-NTA flow-through, Superdex75)
T1 sequence (looked up): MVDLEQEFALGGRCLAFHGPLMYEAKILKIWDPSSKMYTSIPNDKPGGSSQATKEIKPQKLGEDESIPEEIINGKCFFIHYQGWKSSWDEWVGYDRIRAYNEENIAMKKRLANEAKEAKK
The series is described as follows: NMR titration; 0.1 mM 15N-labelled WT or mutant Eaf3 CD titrated with unlabelled histone H3 peptide up to 1:88; 10 mM potassium phosphate pH 6.8, 20 mM NaCl, 5 mM DTT, 25°C; Kd by nonlinear fit of chemical shift change. To be noted: both partners purified.

Series [9] addresses T2, Eaf3 chromodomain (residues 1-120), wild type (Saccharomyces cerevisiae).
T2 construct: Eaf3, Saccharomyces cerevisiae (budding yeast), chromodomain, residues 1-120; 15N-labelled for the NMR titrations; also called Eaf3 CD; WT; source: E. coli BL21(DE3)pLysS, purified (Ni-NTA, thrombin, Ni-NTA, Superdex75)
T2 chain: T1 sequence (looked up)
As to the kind of experiment: NMR titration; 0.1 mM 15N-labeled Eaf3 CD titrated with unlabeled histone H3 peptide; 1H,15N-HSQC; 10 mM potassium phosphate pH 6.8, 20 mM NaCl, 5 mM deuterated DTT, 25°C; Kd from the titration curves of Ala25. To be noted: both partners purified.

In series [10] the target is His18 (UniProt position 18, …). As to the kind of experiment: NMR. To be noted: 25 °C, free (no histone peptide), folded.
Series [11] deals with the molecule itself. As to the kind of experiment: SEC; size exclusion chromatograms of wild-type and mutant Eaf3 CD (Superdex75 in the purification); peaks marked D: dimer, M: monomer. (In general: Size exclusion chromatography separates by hydrodynamic size, large species first.)
Series [12] in a line: NMR pH titration of histidine residues (pKa). It is filed as physicochemical. As to the method: A series of ^1H,^15N-HSQC spectra for 0.1–1.1 mM ^15N-labeled Eaf3 CD were recorded at different pH ranging from 5.2 to 10.5 at 25°C on a Bruker AVANCE-600 spectrometer equipped with a cryogenic probe. The observed chemical shift (δobs) was plotted as a function of pH. pKa values were calculated by a nonlinear least-squares fit of the pH titration curves using the following equation, δobs=[δl+δh×10^(pH-pKa)]/[1+10^(pH-pKa)], where δl and δh represent the chemical shift values at extreme low and high pH, respectively.

Where a chain is given by its changes, count along the chain named. Where two headings read alike, the source gives them in different places. Where no end group is shown, it is not given here. [ ]: non-standard residue; d: D form. me2 = dimethylated (di-methylated lysine); Lys(Me3) = C[N+](C)(C)CCCC[C@H](N)C(=O)O; pT = C[C@@H](OP(=O)(O)O)[C@H](N)C(=O)O; Lys(Me2) = CN(C)CCCC[C@H](N)C(=O)O

Chain of Eaf3 CD Y81A (Q12432 1-120 Y81A limits assumed): as the sequence (Q12432 1-120 W88A limits assumed) above, with Y81A, A88W counted along it
Chain of Eaf3 CD W84A (Q12432 1-120 W84A limits assumed): as the sequence (Q12432 1-120 W88A limits assumed) above, with W84A, A88W counted along it
Chain of Eaf3 CD Y23A (Q12432 1-120 Y23A limits assumed): as the sequence (Q12432 1-120 W88A limits assumed) above, with Y23A, A88W counted along it

`C[C@H](N)C(=O)N[C@@H](CCCNC(=N)N)C(=O)N[C@H](C(=O)N[C@@H](CCCC[N+](C)(C)C)C(=O)N[C@@H](CCC(N)=O)C(=O)N[C@H](C(=O)N[C@@H](C)C(=O)N[C@@H](CCCNC(=N)N)C(=O)N[C@@H](CCCCN)C(=O)N[C@@H](CO)C(=O)N[C@H](C(=O)NCC(=O)NCC(=O)N[C@@H](CCCCN)C(=O)N[C@@H](C)C(=O)N1CCC[C@H]1C(=O)N[C@@H](CCCNC(=N)N)C(=O)N[C@@H](Cc1ccc(O)cc1)C(=O)O)[C@@H](C)O)[C@@H](C)O)[C@@H](C)O` [H3K4me3]: the “Dissociation constant (Kd)” value in series [1], in series [2], in series [3] and in series [4] was “N.B” throughout.
On to `C[C@H](N)C(=O)N[C@@H](CCCNC(=N)N(C)C)C(=O)N[C@H](C(=O)N[C@@H](CCCC[N+](C)(C)C)C(=O)N[C@@H](CCC(N)=O)C(=O)N[C@H](C(=O)N[C@@H](C)C(=O)N[C@@H](CCCNC(=N)N)C(=O)N[C@@H](CCCCN)C(=O)N[C@@H](CO)C(=O)N[C@H](C(=O)NCC(=O)NCC(=O)N[C@@H](CCCCN)C(=O)N[C@@H](C)C(=O)N1CCC[C@H]1C(=O)N[C@@H](CCCNC(=N)N)C(=O)N[C@@H](Cc1ccc(O)cc1)C(=O)O)[C@@H](C)O)[C@@H](C)O)[C@@H](C)O` [H3R2ame2K4me3], for which the “Dissociation constant (Kd)” value in series [1], in [2], in series [3] and in series [4] was “N.B” throughout.
Molecule `C[N+](C)(C)CCCC[C@H](N)C(=O)O` [Kme3, tri-methyl-lysine] returned an equilibrium dissociation constant (Kd) in [5] of 4.44 ± 0.23 mM.
In the case of `CN(C)C(N)=NCCC[C@H](N)C(=O)O` [Rame2, asymmetrically di-methylated arginine], the Kd in series [5] (pH 6.8, read-out: Dissociation constant (Kd)) was above 10 mM.
Turning to Eaf3 chromodomain (Eaf3 CD), wild type, the figures for the “fold change of binding (relative to pH 6.8)” value in [6] (pH 6.0-6.8) and in series [6] (pH 6.8-7.5) were “weakened 2.3-fold on going from pH 6.8 to 6.0” and “enhanced 2.2-fold on going from pH 6.8 to 7.5”, respectively. Moreover, in [6] (pH 8.5), the “fold change of binding” value is listed as “enhanced a further 3.6-fold at pH 8.5”. Besides, the “pKa, His18 of Eaf3 CD” value in series [7] was “approximately 6.8”.
In the case of Eaf3 chromodomain H18A H18A, the “fold change of binding (relative to pH 6.8)” value is “decreased by 1.9-fold at pH 5.2” in series [6] (pH 5.2) and “slightly enhanced by a factor of 1.2-fold at pH 8.5” in series [6] (pH 8.5). Besides, the “fold change of binding (H18A relative to WT)” value in series [6] (pH 6.8) was 2.9-fold stronger binding than WT at pH 6.8.
Take Eaf3 chromodomain H18D H18D: the “fold change of binding (H18D relative to WT)” value in series [6] (pH 6.8) is 11.7-fold increase relative to WT at pH 6.8.
As to ART[Lys(Me2)]QTARKSTGGKAPRY [histone H3 peptide H3K4me2, titration peptide], the Kd in series [8] stood at 4.04 ± 0.11 mM.

B1: Histone H3 peptide trimethylated at Lys36 (H3K36me3) (peptide)
peptide: SAPSTGGVK(me3)KPHRYKPGT
notes: histone H3; source: synthetic peptide (bought: Qiagen and SIGMA Genosys)
Turning to B1, the affinity in series [9], expressed as Kd, was 1.94 ± 0.094 mM.

B2: Eaf3 chromodomain (Eaf3 CD; essential Sas2-related acetyltransferase 1-associated factor 3) (Saccharomyces cerevisiae) (protein)
chain: T1 sequence (looked up)
For B2, the pKa entry in series [10] (not stated for the pH titration, the authors state that the pH changes did not disrupt the structure) is recorded as “approximately 6.8”.

B3: Eaf3 chromodomain (residues 1-120) G19A (domain or fragment, Saccharomyces cerevisiae, UniProt Q12432 1-120, looked up)
chain: T1 sequence (looked up) with G19A
notes: Eaf3, Saccharomyces cerevisiae, chromodomain, residues 1-120; source: E. coli BL21(DE3)pLysS, purified (Ni-NTA, thrombin, Ni-NTA, Superdex75)
Take B3: the “stoichiometry N” value in series [11] came to 2.

B4: Eaf3 chromodomain (Eaf3 CD; essential Sas2-related acetyltransferase1-associated factor 3) (Saccharomyces cerevisiae) (protein)
chain: T1 sequence (looked up)
Molecule B4 displayed a pKa in series [10] (the authors state that the pH changes caused no disruption of structure) of 6.47.

B5: Eaf3 CD: chromodomain (residues 1−120) of budding yeast Eaf3 (protein)
chain: T1 sequence (looked up)
modifications: left off: His6, end not stated, cleaved
notes: chromodomain (residues 1−120) of budding yeast Eaf3
As for B5, the “observed pKa value of His18” value in series [12] (NMR pH titration, 25°C, overall) is “approximately 6.8”. For the same molecule, the “fraction of Eaf3 CD molecules with protonated His18” value in [12] (at pH 5.2) is on record as “almost all”. Besides, the “fraction of Eaf3 CD molecules protonated at His18” value in [12] (at physiological pH of 6.8) is on record as “almost half”.

B6: Eaf3 chromodomain (residues 1-120) Y23A (domain or fragment, Saccharomyces cerevisiae, UniProt Q12432 1-120, looked up)
chain: T1 sequence (looked up) with Y23A
notes: as for B3
B6: the “stoichiometry N” value in series [11] amounted to 2.

B7: Histone H3 peptide dimethylated at Lys36 (H3K36me2), 18 residues (peptide)
peptide: SAPSTGGVK(me2)KPHRYKPGT
notes: as for B1
B7: the dissociation constant Kd in [9] was found to be 4.41 ± 0.908 mM.
On to AR[pT][Lys(Me3)]QTARKSTGGKAPRY [histone H3 peptide H3T3phoK4me3, titration peptide (printed in Table 1 as H3T3phoK3me3)], for which the Kd in series [8] is 6.52 ± 0.48 mM.

In general, Kd refers to a measure of binding affinity in units of concentration. As a reminder, the pKa is the negative logarithm of the acid dissociation constant. The low end stands for a stronger acid or weaker base, the high end for a weaker acid or stronger base. In general, stoichiometry N refers to a count of units in the complex or per binding partner.

Source of the values: publication PMC7033311, “The Eaf3 chromodomain acts as a pH sensor for gene expression by altering its binding affinity for histone methylated-lysine residues” (Bioscience Reports, 2020).
